This assay relates to HEK293FT cells transfected with TF library. Kind of assay: Screening of TF condensates based on fluorescent puncta. It counts as cell-based. Particulars: Figure 1B numerical data; TF library screen, one value per transcriptional factor. The method, boiled down: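 Puncta scoring used automated confocal imaging of fifty random fields per well, after anti-Flag or anti-GAL4 immunofluorescence (Alexa 488) in PFA-fixed cells. HEK293FT cells carried TF library plasmids delivered with PEI (1.6 μg/ml DNA). At 60 h they were switched for 12 h to glucose-containing or glucose-free medium.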

B1: NR5A1/FTZ-F1A (protein, UniProt P33242 1-462, looked up)
Steroidogenic factor 1: MDYSYDEDLDELCPVCGDKVSGYHYGLLTCESCKGFFKRTVQNNKHYTCTESQSCKIDKTQRKRCPFCRFQKCLTVGMRLEAVRADRMRGGRNKFGPMYKRDRALKQQKKAQIRANGFKLETGPPMGVPPPPPPPPDYMLPPSLHAPEPKALVSGPPSGPLGDFGAPSLPMAVPGPHGPLAGYLYPAFSNRTIKSEYPEPYASPPQQPGPPYSYPEPFSGGPNVPELILQLLQLEPEEDQVRARIVGCLQEPAKSRSDQPAPFSLLCRMADQTFISIVDWARRCMVFKELEVADQMTLLQNCWSELLVLDHIYRQVQYGKEDSILLVTGQEVELSTVAVQAGSLLHSLVLRAQELVLQLHALQLDRQEFVCLKFLILFSLDVKFLNNHSLVKDAQEKANAALLDYTLCHYPHCGDKFQQLLLCLVEVRALSMQAKEYLYHKHLGNEMPRNNLLIEMLQAKQT
Take B1: the “Z score of condensed fraction” value is -0.1726.

B2: NR1H2/LXRB (protein, UniProt P55055 1-460, looked up)
Oxysterols receptor LXR-beta: MSSPTTSSLDTPLPGNGPPQPGAPSSSPTVKEEGPEPWPGGPDPDVPGTDEASSACSTDWVIPDPEEEPERKRKKGPAPKMLGHELCRVCGDKASGFHYNVLSCEGCKGFFRRSVVRGGARRYACRGGGTCQMDAFMRRKCQQCRLRKCKEAGMREQCVLSEEQIRKKKIRKQQQESQSQSQSPVGPQGSSSSASGPGASPGGSEAGSQGSGEGEGVQLTAAQELMIQQLVAAQLQCNKRSFSDQPKVTPWPLGADPQSRDARQQRFAHFTELAIISVQEIVDFAKQVPGFLQLGREDQIALLKASTIEIMLLETARRYNHETECITFLKDFTYSKDDFHRAGLQVEFINPIFEFSRAMRRLGLDDAEYALLIAINIFSADRPNVQEPGRVEALQQPYVEALLSYTRIKRPQDQLRFPRMLMKLVSLRTLSSVHSEQVFALRLQDKKLPPLLSEIWDVHE
B2: the “Z score of condensed fraction” value came out at 0.2806.

B3: NR3C2 (protein, UniProt P08235 1-984, looked up)
Mineralocorticoid receptor: METKGYHSLPEGLDMERRWGQVSQAVERSSLGPTERTDENNYMEIVNVSCVSGAIPNNSTQGSSKEKQELLPCLQQDNNRPGILTSDIKTELESKELSATVAESMGLYMDSVRDADYSYEQQNQQGSMSPAKIYQNVEQLVKFYKGNGHRPSTLSCVNTPLRSFMSDSGSSVNGGVMRAVVKSPIMCHEKSPSVCSPLNMTSSVCSPAGINSVSSTTASFGSFPVHSPITQGTPLTCSPNVENRGSRSHSPAHASNVGSPLSSPLSSMKSSISSPPSHCSVKSPVSSPNNVTLRSSVSSPANINNSRCSVSSPSNTNNRSTLSSPAASTVGSICSPVNNAFSYTASGTSAGSSTLRDVVPSPDTQEKGAQEVPFPKTEEVESAISNGVTGQLNIVQYIKPEPDGAFSSSCLGGNSKINSDSSFSVPIKQESTKHSCSGTSFKGNPTVNPFPFMDGSYFSFMDDKDYYSLSGILGPPVPGFDGNCEGSGFPVGIKQEPDDGSYYPEASIPSSAIVGVNSGGQSFHYRIGAQGTISLSRSARDQSFQHLSSFPPVNTLVESWKSHGDLSSRRSDGYPVLEYIPENVSSSTLRSVSTGSSRPSKICLVCGDEASGCHYGVVTCGSCKVFFKRAVEGQHNYLCAGRNDCIIDKIRRKNCPACRLQKCLQAGMNLGARKSKKLGKLKGIHEEQPQQQQPPPPPPPPQSPEEGTTYIAPAKEPSVNTALVPQLSTISRALTPSPVMVLENIEPEIVYAGYDSSKPDTAENLLSTLNRLAGKQMIQVVKWAKVLPGFKNLPLEDQITLIQYSWMCLSSFALSWRSYKHTNSQFLYFAPDLVFNEEKMHQSAMYELCQGMHQISLQFVRLQLTFEEYTIMKVLLLLSTIPKDGLKSQAAFEEMRTNYIKELRKMVTKCPNNSGQSWQRFYQLTKLLDSMHDLVSDLLEFCFYTFRESHALKVEFPAMLVEIISDQLPKVESGNAKPLYFHRK
B3: the “Z score of condensed fraction” value is given as -0.7191.

B4: NR2B3/RXRG (protein, UniProt P28705 1-463, looked up)
Retinoic acid receptor …: MYGNYSHFMKFPTGFGGSPGHTGSTSMSPSVALPTGKPMDSHPSYTDTPVSAPRTLSAVGTPLNALGSPYRVITSAMGPPSGALAAPPGINLVAPPSSQLNVVNSVSSSEDIKPLPGLPGIGNMNYPSTSPGSLVKHICAICGDRSSGKHYGVYSCEGCKGFFKRTIRKDLIYTCRDNKDCLIDKRQRNRCQYCRYQKCLVMGMKREAVQEERQRSRERAESEAECASSSHEDMPVERILEAELAVEPKTESYGDMNVENSTNDPVTNICHAADKQLFTLVEWAKRIPHFSDLTLEDQVILLRAGWNELLIASFSHRSVSVQDGILLATGLHVHRSSAHSAGVGSIFDRVLTELVSKMKDMQMDKSELGCLRAIVLFNPDAKGLSNPSEVETLREKVYATLEAYTKQKYPEQPGRFAKLLLRLPALRSIGLKCLEHLFFFKLIGDTPIDSFLMEMLETPLQIT
Regarding B4, the “Z score of condensed fraction” value is -0.7251.

B5: NR1F3/RORC (protein, UniProt P51449 1-518, looked up)
Nuclear receptor ROR-gamma: MDRAPQRQHRASRELLAAKKTHTSQIEVIPCKICGDKSSGIHYGVITCEGCKGFFRRSQRCNAAYSCTRQQNCPIDRTSRNRCQHCRLQKCLALGMSRDAVKFGRMSKKQRDSLHAEVQKQLQQRQQQQQEPVVKTPPAGAQGADTLTYTLGLPDGQLPLGSSPDLPEASACPPGLLKASGSGPSYSNNLAKAGLNGASCHLEYSPERGKAEGRESFYSTGSQLTPDRCGLRFEEHRHPGLGELGQGPDSYGSPSFRSTPEAPYASLTEIEHLVQSVCKSYRETCQLRLEDLLRQRSNIFSREEVTGYQRKSMWEMWERCAHHLTEAIQYVVEFAKRLSGFMELCQNDQIVLLKAGAMEVVLVRMCRAYNADNRTVFFEGKYGGMELFRALGCSELISSIFDFSHSLSALHFSEDEIALYTALVLINAHRPGLQEKRKVEQLQYNLELAFHHHLCKTHRQSILAKLPPKGKLRSLCSQHVERLQIFQHLHPIVVQAAFPPLYKELFSTETESPVGLSK
For B5, the “Z score of condensed fraction” value is reported as 0.1658.

B6: NR2C1/TR2A (protein, UniProt Q505F1 1-590, looked up)
Nuclear receptor subfamily 2 …: MATIEEIAHQIIDQQMGEIVTEQQTGQKIQIVTALDHSTQGKQFILANHEGSTPGKVFLTTPDAAGVNQLFFTSPDLSAPHLQLLTEKSPDQGPNKVFDLCVVCGDKASGRHYGAITCEGCKGFFKRSIRKNLVYSCRGSKDCVINKHHRNRCQYCRLQRCIAFGMKQDSVQCERKPIEVSREKSSNCAASTEKIYIRKDLRSPLAATPTFVTDSETARSAGLLDSGMFVNIHPSGIKTEPAMLMAPDKAESCQGDLSTLASVVTSLANLGKAKDLSHCGGDMPVVQSLRNGDTSFGAFHHDIQTNGDVSRAFDTLAKALTPGESSACQSPEEGMEGSPHLIAGEPSFVEKEGPLLSESHVAFRLTMPSPMPEYLNVHYIGESASRLLFLSMHWALSIPSFQALGQENSISLVKAYWNELFTLGLAQCWQVMNVATILATFVNCLHSSLQQDKMSPERRKSLMEHIFKLQEFCNSMVKLCIDGHEYAYLKAIVLFSPDHPGLENMELIERFQEKAYVEFQDYITRTYPDDTYRLSRLLLRLPALRLMNATITEELFFKGLIGNVRIDSVIPHILKMEPADYNSQIIGHSL
On to B6, for which the “Z score of condensed fraction” value is listed as -0.6816.

B7: NR2F6 (protein, UniProt P10588 1-404, looked up)
Nuclear receptor subfamily 2 …: MAMVTGGWGGPGGDTNGVDKAGGYPRAAEDDSASPPGAASDAEPGDEERPGLQVDCVVCGDKSSGKHYGVFTCEGCKSFFKRSIRRNLSYTCRSNRDCQIDQHHRNQCQYCRLKKCFRVGMRKEAVQRGRIPHSLPGAVAASSGSPPGSALAAVASGGDLFPGQPVSELIAQLLRAEPYPAAAGRFGAGGGAAGAVLGIDNVCELAARLLFSTVEWARHAPFFPELPVADQVALLRLSWSELFVLNAAQAALPLHTAPLLAAAGLHAAPMAAERAVAFMDQVRAFQEQVDKLGRLQVDSAEYGCLKAIALFTPDACGLSDPAHVESLQEKAQVALTEYVRAQYPSQPQRFGRLLLRLPALRAVPASLISQLFFMRLVGKTPIETLIRDMLLSGSTFNWPYGSGQ
For B7, the “Z score of condensed fraction” value turned out to be 2.586.

B8: NRIP1 (protein, UniProt P48552 1-1158, looked up)
Nuclear receptor-interacting …: MTHGEELGSDVHQDSIVLTYLEGLLMHQAAGGSGTAVDKKSAGHNEEDQNFNISGSAFPTCQSNGPVLNTHTYQGSGMLHLKKARLLQSSEDWNAAKRKRLSDSIMNLNVKKEALLAGMVDSVPKGKQDSTLLASLLQSFSSRLQTVALSQQIRQSLKEQGYALSHDSLKVEKDLRCYGVASSHLKTLLKKSKVKDQKPDTNLPDVTKNLIRDRFAESPHHVGQSGTKVMSEPLSCAARLQAVASMVEKRASPATSPKPSVACSQLALLLSSEAHLQQYSREHALKTQNANQAASERLAAMARLQENGQKDVGSYQLPKGMSSHLNGQARTSSSKLMASKSSATVFQNPMGIIPSSPKNAGYKNSLERNNIKQAANNSLLLHLLKSQTIPKPMNGHSHSERGSIFEESSTPTTIDEYSDNNPSFTDDSSGDESSYSNCVPIDLSCKHRTEKSESDQPVSLDNFTQSLLNTWDPKVPDVDIKEDQDTSKNSKLNSHQKVTLLQLLLGHKNEENVEKNTSPQGVHNDVSKFNTQNYARTSVIESPSTNRTTPVSTPPLLTSSKAGSPINLSQHSLVIKWNSPPYVCSTQSEKLTNTASNHSMDLTKSKDPPGEKPAQNEGAQNSATFSASKLLQNLAQCGMQSSMSVEEQRPSKQLLTGNTDKPIGMIDRLNSPLLSNKTNAVEENKAFSSQPTGPEPGLSGSEIENLLERRTVLQLLLGNPNKGKSEKKEKTPLRDESTQEHSERALSEQILMVKIKSEPCDDLQIPNTNVHLSHDAKSAPFLGMAPAVQRSAPALPVSEDFKSEPVSPQDFSFSKNGLLSRLLRQNQDSYLADDSDRSHRNNEMALLESKNLCMVPKKRKLYTEPLENPFKKMKNNIVDAANNHSAPEVLYGSLLNQEELKFSRNDLEFKYPAGHGSASESEHRSWARESKSFNVLKQLLLSENCVRDLSPHRSNSVADSKKKGHKNNVTNSKPEFSISSLNGLMYSSTQPSSCMDNRTFSYPGVVKTPVSPTFPEHLGCAGSRPESGLLNGCSMPSEKGPIKWVITDAEKNEYEKDSPRLTKTNPILYYMLQKGGNSVTSRETQDKDIWREASSAESVSQVTAKEELLPTAETKASFFNLRSPYNSHMGNNASRPHSANGEVYGLLGSVLTIKKESE
Take B8: the “Z score of condensed fraction” value is given as 2.676.

B9: NR1I3/CAR1 (protein, UniProt Q14994 1-352, looked up)
Nuclear receptor subfamily 1 …: MASREDELRNCVVCGDQATGYHFNALTCEGCKGFFRRTVSKSIGPTCPFAGSCEVSKTQRRHCPACRLQKCLDAGMRKDMILSAEALALRRAKQAQRRAQQTPVQLSKEQEELIRTLLGAHTRHMGTMFEQFVQFRPPAHLFIHHQPLPTLAPVLPLVTHFADINTFMVLQVIKFTKDLPVFRSLPIEDQISLLKGAAVEICHIVLNTTFCLQTQNFLCGPLRYTIEDGARVSPTVGFQVEFLELLFHFHGTLRKLQLQEPEYVLLAAMALFSPDRPGVTQRDEIDQLQEEMALTLQSYIKGQQRRPRDRFLYAKLLGLLAELRSINEAYGYQIQHIQGLSAMMPLLQEICS
For B9, the “Z score of condensed fraction” value was -0.6844.
